We go through 7 molecules from patent publication US10570379B2, “Polypeptides for carbon-carbon bond formation and uses thereof” (INVISTA North America S.à.r.l., priority 2015, dated 2020).

Series [1] can be described thus: Activity of YdiF mutant enzymes (evaluation of potential active sites). It is filed as biochemical. The conditions noted are these: studied as in Example 2. As for the experimental part: YdiF mutants were prepared using the relevant primers to introduce the mutated bases via the Quick change lightning kit (Agilent, code product: 210518-5), and cloned into E. coli. In addition, all the proteins used in this experiment have the following extra amino acids added in the N-terminal extremity of the original protein sequence (SEQ ID NO:1): […]. Those additional amino acids correspond to: two amino acids (M and G), a 6×His-tag followed by a 3 amino acids linker (SSG), and a specific proteolytic cleavage site (thrombin site, underlined) (SEQ ID NO: 22). All the sequences were confirmed by DNA sequencing.
(§1) Acetyl-CoA was used at a final concentration of 1.5 mM and 30 mM of the substrate being studied (e.g. carboxylic acid salts, such as sodium acrylate) or 1.5 mM of propionyl-CoA in 50 mM Hepes buffer (pH 7.5). The reaction was started by addition of 0.5 mg/mL of YdiF pure protein or mutants to a final volume of 250 μL and incubated for 1 to 10 hours at 30° C.
(§2) All samples were prepared in triplicate and spun down at 15000 g for 20 min at 4° C. Detection of the thiol product (e.g. acryloyl-CoA) synthesized from CoA-transferase activity and the keto-thiol product (e.g. 3-oxopent-4-enoyl-CoA) due to putative thiolase activity of YdiF (or homologues) was carried out by Liquid Chromatography coupled to a qTof-Mass spectrometry (in positive mode), using a C18 column (Zorbax Eclipse C18, 2.1×50 mm, 1.8μ, Agilent, code product: 959757-902) and a gradient of 10 mM ammonium acetate and acetonitrile as mobile phase.
Mutations were introduced as described in Example 1 at the following positions previously found to be potentially involved in the active site of other β-ketothiolases: C258A, S60A, C112A, S38A, C390A. Activity of the mutant enzymes was studied as described in Example 2.
Mutations were introduced as described in Example 1 to replace the glutamate in position 324 of YdiF (see Selmer et al., 2002) with glycine (mutant E324G) or leucine (E324L). Activity of the mutant enzymes was studied as described in Example 2.

Series [2] is described as follows: Solubility of the expressed protein (Table 3). Particulars: protein expressed in E. coli.
Procedure: From a fresh LB plate containing the desired clone transformant, one colony (or small scratch) was picked to inoculate 25 mL of LB supplemented with the relevant antibiotic and the pre-culture was incubated overnight at 37° C., 230 rpm. The following morning, the TB auto-induced medium (Merck/Code product: 71491-5) was prepared by mixing 60 g TB/L supplemented with 10 mL Glycerol/L of TB and microwaved during 3+2 minutes at full power. The TB was cooled down before use and splitting it in sterile flasks. Then, the pre-culture incubated overnight in LB was centrifuged and the supernatant discarded. The obtained pellet was resuspended with 5 mL of freshly prepared TB medium and used to inoculate 500 mL of TB dispensed in sterile flasks and supplemented with the appropriate antibiotic. The inoculated medium was incubated at 28° C. for at least 20 h, 230 rpm.
The culture was centrifuged at least at 3000 g/20 min/4° C. and the pellet used immediately or stored at −80′C.
The pellets (fresh or thawed) were resuspended in 10 to 20 mL of Buffer A (50 mM Hepes+150 mM NaCl+40 mM Imidazole+5% Glycerol−pH 7.5). The resuspended cells were then sonicated in ice for, 5 min at 37% Amplitude with 5″ ON and 15″ OFF sonication pulse. The sonicated cells were centrifuged for at least 20 min at 15500 g and 4° C. The supernatant containing the soluble fraction of proteins was recovered, filtered using 0.45 or 0.2 um filters, and used for His-trap protein purification.
A short description of series [3]: Screen for dual transferase/ketothiolase activity with acetyl-CoA and sodium acrylate, LC-MS detection. It is filed as biochemical. How it is done: as §1
Two controls were made from similar mixture except that the enzymes were inactivated by heating-up at 95° C. for 20 min or they were replaced by Buffer C.
as §2
YdiF from Clostridium propionicum belongs to the enzymatic class EC2.8.3.8. Other members of this enzyme class with similar structural features to YdiF, as well as proteins with a CoA-transferase activity from close-by enzymatic classes, were screened for dual transferase/ketothiolase activity as described in Example 2. Acetyl-CoA and sodium acrylate were provided as substrates. LC-MS was used to detect the thiol-product (propenoyl-CoA) synthesized via the transferase activity and the ketothiol-product (3-oxopent-4-enoyl-CoA) synthesized via the thiolase activity, as described in Example 2.

B1: E324L: YdiF mutant, leucine for the glutamate in position 324, SEQ ID NO: 4 (protein)
chain: MGHHHHHHSSGLVPRGSMRKVPIITADEAAKLIKDGDTVTTSGFVGNAIPEALDRAVEKRFLETGEPKNITYVYCGSQGNRDGRGAEHFAHEGLLKRYIAGHWATVPALGKMAMENKMEAYNVSQGALCHLFRDIASHKPGVFTKVGIGTFIDPRNGGGKVNDITKEDIVELVEIKGQEYLFYPAFPIHVALIRGTYADESGNITFEKEVAPLEGTSVCQAVKNSGGIVVVQVERVVKAGTLDPRHVKVPGIYVDYVVVADPEDHQQSLDCEYDPALSGEHRRPEVVGEPLPLSAKKVIGRRGAIELEKDVAVNLGVGAPEYVASVADEEGIVDFMTLTALSGAIGGVPAGGVRFGASYNADALIDQGYQFDYYDGGGLDLCYLGLAECDEKGNINVSRFGPRIAGCGGFINITQNTPKVFFCGTFTAGGLKVKIEDGKVIIVQEGKQKKFLKAVEQITFNGDVALANKQQVTYITERCVFLLKEDGLHLSEIAPGIDLQTQILDVMDFAPIIDRDANGQIKLMDAALFAEGLMGLKEMKS
On to B1, for which, in series [1], the transferase activity entry is listed as “only partially abolished”.

B2: Bdigene 0343: E-cinnamoyl-CoA: R-phenyilactate CoA transferase from Clostridium sporogenes, Uniprot Q93AM1 (protein, UniProt Q93AM1 1-412, looked up)
Cinnamoyl-CoA:phenyllactate …: MENNTNMFSGVKVIELANFIAAPAAGRFFADGGAEVIKIESPAGDPLRYTAPSEGRPLSQEENTTYDLENANKKAIVLNLKSEKGKKILHEMLAEADILLTNWRTKALVKQGLDYETLKEKYPKLVFAQITGYGEKGPDKDLPGFDYTAFFARGGVSGTLYEKGTVPPNVVPGLGDHQAGMFLAAGMAGALYKAKTTGQGDKVTVSLMHSAMYGLGIMIQAAQYKDHGLVYPINRNETPNPFIVSYKSKDDYFVQVCMPPYDVFYDRFMTALGREDLVGDERYNKIENLKDGRAKEVYSIIEQQMVTKTKDEWDNIFRDADIPFAIAQTWEDLLEDEQAWANDYLYKMKYPTGNERALVRLPVFFKEAGLPEYNQSPQIAENTVEVLKEMGYTEQEIEELEKDKDIMVRKEK
Turning to B2, the Solubility entry in series [2] is “✓”.

B3: Bdigene 271: Acetate CoA-transferase YdiF from Salmonella enterica subsp. houtenaeserovar, Uniprot V1HBS2, SEQ ID NO: 9 (protein, listed as Salmonella enterica)
chain: MLSTKQFTAQQAVELIQDGDKVILGGFIGAVVPEAIEKAIEDKFLAEGHPCNLGLIFAAGQGDAKEKAINRLAHEGLVSSAIGGHWGLIPGLQRLASEGKITGYNLPQGVICHLLRDSAAGKAGTLTHVGLGTFVDPRIEGGKINAKTTEDIVTYININDVENLLYKKLDANIAILRGTTADTHGNITMEDECLILENLAAAQLVHNQGGKVIVQVKRIVPKGSLDPLQVKIPGIFVDALVVADGEAHMQTFAEAMNENYVGRGEKGIRERKIRPLDVKKVIARRAAMELKKNAIVNYGIGIPEIIAQVADEENVTQELIATVEPGAIGGSPAGGLSFGASAFPEAIITQDQMFDFYDGGGLDQAFLGLAETDAKGDLNVSKFGVKIAGCGGFINITQNAKHVFFCGSFTAGDSDIIVEEGKLIIRRDGQIKKFIKHVQQITFSSDTARKNHKPVLYITERAVFRLAAETIELIEIAPGIDLQHDILDKMEFRPTISPALKEMDKRIFSEALMSLSLK
B3: in series [3] (3-oxopent-4-enoyl-CoA via thiolase activity), the ketothiol-product entry is “✓”. Moreover, in series [3] (propenoyl-CoA via transferase activity), the thiol-product entry is recorded as “✓”.

B4: Bdigene 275: Acetyl-CoA acetyltransferase from Dyadobacter fermentans, Uniprot C6VTZ3, SEQ ID NO: 8 (protein)
chain: MNAYIVAGYRTAVGKAPRGGFRFTRPDDLGAAVIKHLLEKTPQLDPTRVDDVIVGNAVPEAEQGMQMGRYVALLSLPKNVSGITINRYCGSGVEAIAMASAKIHAGMAECIIAGGTESMSLVPTMGWKTALNYEIAHTNPDYYLSMGLTAEQVAQDFKISREAQDNFSFQSHQKALRAQKEGWFAEGIVPVTVKETYFDQASGKKKTKETVISQDEGPRADTTLEALNKLKPVFAAGGSVTAGNSSQTSDGAAFVLVMSERLVNELGLKPIARMMSYATAGVDPRVMGIGPVAAVPLALKQAGLQLKDIQQVELNEAFAAQSLAVIQELGIDPEIVNPNGGAIALGHALGSTGARLSVQLFNEMKRRDQKYGMVTACVGGGQGVAGIYERLN
modifications: Dyadobacter fermentans
On to B4, for which the Solubility entry in series [2] was “✓”.

B5: S60A: YdiF (SEQ ID NO: 1) mutant, alanine for serine at position 60, N-terminal His-tag (protein, listed as Clostridium propionicum)
chain: MRKVPIITADEAAKLIKDGDTVTTSGFVGNAIPEALDRAVEKRFLETGEPKNITYVYCGAQGNRDGRGAEHFAHEGLLKRYIAGHWATVPALGKMAMENKMEAYNVSQGALCHLFRDIASHKPGVFTKVGIGTFIDPRNGGGKVNDITKEDIVELVEIKGQEYLFYPAFPIHVALIRGTYADESGNITFEKEVAPLEGTSVCQAVKNSGGIVVVQVERVVKAGTLDPRHVKVPGIYVDYVVVADPEDHQQSLDCEYDPALSGEHRRPEVVGEPLPLSAKKVIGRRGAIELEKDVAVNLGVGAPEYVASVADEEGIVDFMTLTAESGAIGGVPAGGVRFGASYNADALIDQGYQFDYYDGGGLDLCYLGLAECDEKGNINVSRFGPRIAGCGGFINITQNTPKVFFCGTFTAGGLKVKIEDGKVIIVQEGKQKKFLKAVEQITFNGDVALANKQQVTYITERCVFLLKEDGLHLSEIAPGIDLQTQILDVMDFAPIIDRDANGQIKLMDAALFAEGLMGLKEMKS
modifications: N-terminal His-tag
Turning to B5, in series [1], the thiolase activity result is “None of the mutations abolished” and the transferase activity entry was “None of the mutations abolished”.

B6: C390A: YdiF (SEQ ID NO: 1) mutant, alanine for cysteine at position 390, N-terminal His-tag (protein, listed as Clostridium propionicum)
chain: MRKVPIITADEAAKLIKDGDTVTTSGFVGNAIPEALDRAVEKRFLETGEPKNITYVYCGSQGNRDGRGAEHFAHEGLLKRYIAGHWATVPALGKMAMENKMEAYNVSQGALCHLFRDIASHKPGVFTKVGIGTFIDPRNGGGKVNDITKEDIVELVEIKGQEYLFYPAFPIHVALIRGTYADESGNITFEKEVAPLEGTSVCQAVKNSGGIVVVQVERVVKAGTLDPRHVKVPGIYVDYVVVADPEDHQQSLDCEYDPALSGEHRRPEVVGEPLPLSAKKVIGRRGAIELEKDVAVNLGVGAPEYVASVADEEGIVDFMTLTAESGAIGGVPAGGVRFGASYNADALIDQGYQFDYYDGGGLDLCYLGLAECDEKGNINVSRFGPRIAGAGGFINITQNTPKVFFCGTFTAGGLKVKIEDGKVIIVQEGKQKKFLKAVEQITFNGDVALANKQQVTYITERCVFLLKEDGLHLSEIAPGIDLQTQILDVMDFAPIIDRDANGQIKLMDAALFAEGLMGLKEMKS
modifications: N-terminal His-tag
As to B6, in series [1], the thiolase activity entry is “None of the mutations abolished” and the transferase activity result is listed as “None of the mutations abolished”.

B7: C112A: YdiF (SEQ ID NO: 1) mutant, alanine for cysteine at position 112, N-terminal His-tag (protein, listed as Clostridium propionicum)
chain: MRKVPIITADEAAKLIKDGDTVTTSGFVGNAIPEALDRAVEKRFLETGEPKNITYVYCGSQGNRDGRGAEHFAHEGLLKRYIAGHWATVPALGKMAMENKMEAYNVSQGALAHLFRDIASHKPGVFTKVGIGTFIDPRNGGGKVNDITKEDIVELVEIKGQEYLFYPAFPIHVALIRGTYADESGNITFEKEVAPLEGTSVCQAVKNSGGIVVVQVERVVKAGTLDPRHVKVPGIYVDYVVVADPEDHQQSLDCEYDPALSGEHRRPEVVGEPLPLSAKKVIGRRGAIELEKDVAVNLGVGAPEYVASVADEEGIVDFMTLTAESGAIGGVPAGGVRFGASYNADALIDQGYQFDYYDGGGLDLCYLGLAECDEKGNINVSRFGPRIAGCGGFINITQNTPKVFFCGTFTAGGLKVKIEDGKVIIVQEGKQKKFLKAVEQITFNGDVALANKQQVTYITERCVFLLKEDGLHLSEIAPGIDLQTQILDVMDFAPIIDRDANGQIKLMDAALFAEGLMGLKEMKS
modifications: N-terminal His-tag
With B7, in series [1], the thiolase activity entry was “None of the mutations abolished” and the transferase activity result is “None of the mutations abolished”.
